One molecule from EP3244212A1 can be followed below.

Experiment [1] addresses serum sIgE of the patients of the ELISA inhibition study (Example 3) (human). As to the kind of experiment: ELISA inhibition: serum pre-incubated with soluble Ara h 2 (0.1, 1, 10 ug/ml); immobilised competitor Ara h 6. A general note: ELISA stands for enzyme-linked immunosorbent assay.
For experiment [2] the target is unchanged. As to the kind of experiment: ELISA inhibition: serum pre-incubated with soluble Ara h 2 (0.1, 1, 10 ug/ml); immobilised competitor Ara h 7.0201.

B1: Ara h 2 isotype 2.0201, recombinant His6 fusion protein (protein)
chain: MSHHHHHHIEGRTMRQQWELQGDRRCQSQLERANLRPCEQHLMQKIQRDEDSYGRDPYSPSQDPYSPSQDPDRRDPYSPSPYDRRGAGSSQHQERCCNELNEFENNQRCMCEALQQIMENQSDRLQGRQQEQQFKRELRNLPQQCGLRAPQRCDLEVESGGRDRY
As for B1, the % inhibition (median over sera) in experiment [1] worked out at 43%; in experiment [2], 16%.
